Experimental data from the DeepSol protein solubility set.

experiment: soluble on expression in E. coli; label from the status in PepcDB or PDB records

Sequence | soluble on expression in E. coli
MSHDFAHTELEELLTRTREAIEASFGNRSPQVEVRGEGTDPDGHVRAVAVSGGRIETVEIAPQAVRLGSHRLAECALAAVNAALADLEAKAAEAAGLTGPQADALRERLREMQDLSLQQLRSYSRSLQDLMNSFERS | not soluble
SLTTTDADWKPVADALGRSGKLGDNNTAYRINLPRNDLHITSYGVDIKPGLSLGGYAAFARYDNNETLLMGDLVITEEELPKVTDALQAHGIAQTALHKHLLQQDPPVWWTHIHGMGDAARLAQGLKAALDATTIGPPTPPPARQPPVDIDVAGVDQALGRKGTQDGGLMKYSIPRKDTIIEDGHVLPAVSLNLTTVINFQPVGRGRAAINGDFILIAPEVQEVIRAMRAGNITIVELHNHGLTEEPRLFYMHYWAVDDAVTLARALRPAMDATNLQS | not soluble
MLIKIAPSILSADFSKLGEEVLRIEKAGADLVHIDVMDGHFVPNITIGPPVVKSLKKVSKLPFDVHLMIENPDMYIESFADAGADIISVHAEACRHLHRTIQKIKQLGIKAAVALNPATPLCAVEWVMEDVDMILLMTVNPGFGGQKYINGVTRKIEELERIVESRGLNIDIEVDGGIDTETVQYVTKAGANVIVSGSTIFAAEDTAKIIQELRMNSYRK | not soluble
MSNEKFNNVPKPAGNGPHTPEDHAIKGELTFEDKVVQKIIGLALENVDGLLTVDGGFFSNIAEKLVNTDNVTAGIDTEVGKKQVAVDMDIVVEYGKDIQDIYEKMKELISREVKKMTHLDVIEVNVNVVDIKSKEEYEEDSETVQDKVTGAAKSTGEFASEQTEKAKKAVNKGTEQVKENMEPRVELEHHHHHH | soluble
FSGSEATAAILSRAPWSLQSVNPGLKTNSSKEPKFTKCRSPERETFSCHWTDEVHHGTKNLGPIQLFYTRRNTQEWTQEWKECPDYVSAGENSCYFNSSFTSIWIPYCIKLTSNGGTVDEKCFSVDEIVQPDPPIALNWTLLNVSLTGIHADIQVRWEAPRNADIQKGWMVLEYELQYKEVNETKWKMMDPILTTSVPVYSLKVDKEYEVRVRSKQRNSGNYGEFSEVLYVTLPQMSQ | soluble
MKLSHDCIRDILLFSESLPYNEPAFGDKIFKSDLLKKYSSEEINYAVSKLGDDDAQLIKGYVKFASNKPYMTCISSLTFDGHKYLDNIRDPKIWKESKKISSKLASVSIDIMSEIAAKVITKTLGLD | not soluble
MRKQALHPRTAVINKAQKNQSKRARSDALLWLAANFPEAFDNSLRIRPLKIGIMSDILQHAEKAEQVGISKSKLREAVVLFTRRLDYLACLKAREVRIDLHGNPVAEVTEEEAEHASMKIKKRVEKSVKNARKQVNAKAANHSHVNSQPSAVSSVKPMNSFDSHPEPLLPIYPLRSSTYASQNVAMQSAKSPSVVVKHKAPKQYDPDAVARLKEKLGLSRKAEEKKETTE | not soluble
MGSDKIHHHHHHMTALSSVDFCLPEHITPEIFLRDYWQKKPLVIRNGLPEIVGQFEPQDIIELAQNEDVTARLVKTFSDDDWKVFFSPLSEKDFQKLPEKWSVLVQNLEQWSPELGQLWNKFGFIPQWQRDDIMVSYAPKGGSVGKHYDEYDVFLVQGYGHRRWQVGKWCDASTEFKPNQSIRIFDDMGELVIDEVMNPGDILYIPARMAHYGVAEDDCLTFSFGLRYPNLSNLIDGISKGFCHQDPDLNLSEFDLPLRLSQSEQRTGKLADENIQAMKQLLLDKLAHSEAFDTLFKQAVASAVSSRRYELLVSDEMCDPDEVRSILEEDGAFLSQDNNCKLLYTENPLRIYANGEWLDELNIIESEVLKRLSDGESLDWAFLSDLANKTEDPETSMDLLLDSICNWVDDGWALIE | not soluble
MVLWVFGYGSLIWNPGFDFDEKLIGYIKDYKRVFDLACIDHRGTPEHPARTCTLEQSTGAICWGAAYCVRGGPEKEKLAMEYLERRECEYDSKTLVEFYTENDTSTPIVTGVIVFTSTPDKVSNKYYLGPAPLEEMARQIATASGPCGNNREYLFKLEKAMFDIEHEEEYVIELANEVRKQLDLPEEVKALLKPIVSHVSVKSQAHVSTRQRVFAS | soluble
PEPAQQQAPVEKPKKKAKLEVIGDDVVSIMVSLRWLEFLLDNYGPENTLDVLDYYESLGWISATVKEQMMKYAKMTGVMNPAQEYKIKPSIQDHIINMLFIEKLRGEEINRDLIEALEREFRTIRKGVDELYGI | not soluble
MVGLLVEDTIDDQGWNRKAYEGLLNIHSNLDVDVVLEEGVNSEQKAHRRIKELVDGGVNLIFGHGHAFAEYFSTIHNQYPDVHFVSFNGEVKGENITSLHFEGYAMGYFGGMVAASMSETHKVGVIAAFPWQPEVEGFVDGAKYMNESEAFVRYVGEWTDADKALELFQELQKEQVDVFYPAGDGYHVPVVEAIKDQGDFAIGYVGDQADLGGSTILTSTVQHVDDLYVLVAKRFQEGKLESGNLYYDFQDGVVSLGEFSSVVPDEVREQITDAISTYIQTGQFPHEEER | soluble
GPGSMRKFCHFMANCWNSARSHATYGAVPLTHSQVTSVYATDGGKVDELGLLELVEERIFSWKLNKWEMRIPPNLPNDQKELIRQEQENLKQILSGWRKCFGALNADILQISSLTGVPKEVVREKNRTWLQEEVAKLRWMGEVNKAALLRDAFMRLEAFGSRDFMFMERLCCIYGLARQGTFDEAFTNYITEDPVTNDIFVDERNPFKELVAHIVRNYSQIDIIYDFLGFNYSEGYRSSLRRYMEYLQCKTAENVRASGRLVTGDKGEHNILFDYCVSRESLVSGDSCQGIIDFLYINGNDVTLIIIASDNPWLRNRQLPHRRQMEGIARRVCFVLGIPPSEVRIRNLLLPPTYLDKGSIVRLNDIVFRLSNEQSNLLIPWLTNYNKELDPKDVDYTALAKTTNEEEWLTL | not soluble
MAFVLDASTAVAWCFDEHHPAADRTLELAKVSEPRAPAILWFELRNAALMGIRRGRVKAEAADGVLARIERIRISIAPLPPAADPIFALAQRHRLTFYDAAYLELAQRERIGLATLDAALVGA | not soluble
VSAETAARIDAESDSMDWPQEVTLGEVLRERFGDDLVDHVVSALQGGVYSSTSDDLSLRDTVPQLARALDRLKEEGKPVTITAAVQSIMADREKRNKARGYKPSVFAAFPGGYAELYEALAEKSGAKIHIDAFITGIQWKDGFTLKGAEGTFDK | not soluble
MLRSLVQNPKVRARVLERVDEFRLNNLSNEEVWFRELTLCLLTANSSFISAYQALNCLGQKIYYANEEEIRNILKSCKYRFYNLKAKYIIMAREKVYGRLKEEIKPLADEDQQLARERLLNIKGIGMQEASHFLRNVGYFDLAIIDRHIIDFMRRIGAIGETNVKQLSKSLYISFENILKSIASNLNMSVGILDLFIWYKETNTIVK | soluble
SSESKQDEDSGTSASLSKASKETSCKRQNREGSWDSSLVMKKPKQNQVSTVTDSEVALVSAYLEQRRVRRHSQFLRVNQIQQDSDTTECDSEESNSGASSWKESESDHHLSPANIKRRKSVSRQRDMENYEVRQRPCLHCKAMRTREWLTRHFPPSASVTTPMKGEIQEENLTPGTNTKFSKF | soluble
MEYSHLIPEASHAQTSFGLLYMWANDYEYGVFIDDDTLPHEDADFFGTHMSNLAFEGEIETVSSDEQWVNVLYQNEDEHGLYPRGYPYAAMDETVATEATQVNDVVASQGLWTNVPDLDAVRILMDGDLQGQAQTRTSGADFGDDFVAAEGQYLTVCSMNLAFRREVIPAFYQLPMDDNEWDVGRFDDIWSGVFLKRACDVLGKQIYNGDPLCEHNKAPRSTFSDLTNEVHGLELNEHVWEIVDEAGADADSYAEVFDAIATAMADGDFSDWENGAFLNYCGEFMLDWLECLDELDAAATELEHHHHHH | soluble
MVIIMQFYKEENFKEMHGLRVPEDWEVVRIGDFIKYIKGKKPAVMVDEELEGYYPYLSTEYLRDGIASKFVKITNKEIIVNENDILLLWDGSNAGEIFLGKKGILSSTMVKLEQKNKIMDDLYLFYSLKLKESFLKSQTKGTGIPHVDKKIFENIKIPLPPLEEQKQIAKILSDFDNLIGTINKQIEVLNKAKKGMMKKLFTKGVFEHKSFKKSEIGEIPEDWEVVKLKEVVDIQSGKYFKYSEFCENGVKCLKIDNVGFGKIFWETVSFLPEDYLNKYPQLVLKSGDIVLALNRPIIGGKIKIGILKDIDEPAILYQRVGRFIFKSEKIDKQFLFYLLMSEYFKKELSKLLIGTDQPYIRTPVLLNIKIPLPHLEEQKAMAERLKSIDNLIEIKRKEKEQIEKAKKKIMNLLLTGKIRVKNLNF | soluble
QALIKEARLTPKPGLVDSTNNGSHQDMSLSTFEQSAIALRPFFTQFVLMGIETTNLPDSHILSKIRPLGLQAEQAMFVATNQVNTHKGAIFAFGLVCTALGRHFSRWQNKMMSSPSFEISQDTTGISLISETVARFTQGITDELKNYSKNQPLTAGITLYQQYGFTGARGEAEKGFPLVQQAVVFILSQAESEMRWYWALLYLMANNNDTNIVHRGGINGLQFIQDEAHKRLGNAKNLQNANALMASLREFDDDCIARNLSPGGSADLLALTIFFLSLLYC | not soluble
MSLKRAEPQSLQVSQNELQAMAYSDPLTGLGNRYRLRDKIRMLASERSSDPAPFTVGIANIDGFKPINDLFGVQAGDEILCQVAHRLKACIPDGAIVTRHDGDEFAFVLPLIFERIGAERIGNMIKDVLSAPYDLGDRNVRLSSSFGFAIYPFAGDEYEDLLKSAETALYRSKRRGRGQITVYSREIAQEMKRATQLEQALRNAIITDAIDVHFQPIVRLEEAKVIGFEALARWNDPDLGFVSPAVFVPLAEERGFIDALSEALLRKAAEAALFWPRELFLSFNLSSAQLMDPSTSDNILSILSRVGLDPHRLELEITETAVMTSADTAQRIISELQSAGVRISLDDFGTGQSSLGRLRDFTFDKVKIDRAFVSRISSDRPSEHIIKAIVAMCEGLDLEVVAEGIEERVEEEKLRALGCAMGQGYFYGRPVDAAATQRYLHENYREILSDISEGHHHHHH | soluble
GAHMADLSLEKAAEVSWEEEAEHSGASHNILVEVQDDGTMKIKDEERDDTLGGGGSGGGGSGVLWDTPSPGIYRILQRGLLGRSQVGVGVFQEGVFHTMWHVTRGAVLMYQGKRLEPSWASVKKDLISYGGGWRFQGSWNAGEEVQVIAVEPGKNPKNVQTAPGTFKTPEGEVGAIALDFKPGTAGSPIVNREGKIVGLYGNGVVTTSGTYVSAIAQAKASQEGPLPEIEDEVFRK | soluble
MAHHHHHHMSSPFFGEQRKTRHNRSCSSCDSLPRYAASPPCHPQYAKVDRAAPSVSSPTFSSVPPSPKFPALCMHAMSHTNSTVPSSKLPFSNSVTGNGAALIGTLASFDSEAPRGRPASVAEDGAASGSSSGLSRAAVLMSGRGDASPPFSPQPSGSVLAVFCPLTSKAWQSGTLRDGIAFDVDTTSKVSTISPQTGLQSPLLFSSGWSQQSVSAAAQGTPPSFMGTPGQSLISAGAEGDDAEDTPHSCGAMYSPNHSVSLLPAPKVFVSVYPVQSPEPFATKFTGSPVFEVSLTTPPSIRAPQTGAARGAGATPAPSSRLPSESLEQYSLLRSPILHSLTPLSISPSAPLSPGFGCITGTEPMQSRLSRHRLATSAGSEQLPVRTSNDMRSRNAAVASPPPAAVPSVNSNHESLSDRLVSPARRSYRCPLPSSNEASLSSFFAVDDAGLHANLSMTQASEEDAAHRAASATLPRVCSSKDTEAEEGVAAALAPDTTDDPFEAFWDISPAAQWGGSVTEMLPRITTSSAPFETGSASRSVTAFASGTHEKDSHSSEEFNQNNRLSCVSMERHRNTILHRPSAAQQRNTILHRPSVVQQRNSVNRSVDTQRTTSKTMTLQQRQRRFSLQQEDSIEIKRRSYA | not soluble
